In US20160208274:

Molecular target: fibrin (formed in the agarose plate from fibrinogen and thrombin)

B1: recombinant human tissue plasminogen activator (t-PA) from transgenic T1 tobacco seeds, with C-terminal 6xHis tag and KDEL (protein)
chain: SYQVICRDEKTQMIYQQHQSWLRPVLRSNRVEYCWCNSGRAQCHSVPVKSCSEPRCFNGGTCQQALYFSYFVCQCPEGFAGKCCEIDTRATCYEDQGISYRGTWSTAESGAECTNWNSSALAQKPYSGRRPDAIRLGLGNHNYCRNPDRDSKPWCYVFKAGKYSSEFCSTPACSEGNSDCYFGNGSAYRGTHSLTESGASCLPWNSMILIGKVYTAQNPSAQALGLGKHNYCRNPDGDAKPWCHVLKNRRLTWEYCDVPSCSTCGLRQYSQPQFRIKGGLFADIASHPWQAAIFAKHRRSPGERFLCGGILISSCWILSAAHCFQERFPPHHLTVILGRTYRVVPGEEEQKFEVEKYIVHKEFDDDTYDNDIALLQLKSDSSRCAQESSVVRTVCLPPADLQLPDWTECELSGYGKHEALSPFYSERLKEAHVRLYPSSRCTSQHLLNRTVTDNMLCAGDTRSGGPQANLHDACQGDSGGPLVCLNDGRMTLVGIISWGLGCGQKDVPGVYTKVTNYLDWIRDNMRPHHHHHHKDEL
  fibrin plate assay (fibrin degradation; lytic area on the fibrin plate): recombinant t-PA from T1 seeds and DSPAα1 from T3 homologous seeds can degrade fibrin

B2: recombinant Desmodus rotundus salivary plasminogen activator alpha1 (DSPAα1) from transgenic T3 tobacco seeds, with C-terminal 6xHis tag and KDEL (protein)
chain: AYGVACKDEITQMTYRRQESWLRPEVRSKRVEHCQCDRGQARCHTVPVNSCSEPRCFNGGTCWQAVYFSDFVCQCPAGYTGKRCEVDTRATCYEGQGVTYRGTWSTAESRVECINWNSSLLTRRTYNGRMPDAFNLGLGNHNYCRNPNGAPKPWCYVIKAGKFTSESCSVPVCSKATCGLRKYKEPQLHSTGGLFTDITSHPWQAAIFAQNRRSSGERFLCGGILISSCWVLTAAHCFQESYLPDQLKVVLGRTYRVKPGEEEQTFKVKKYIVHKEFDDDTYNNDIALLQLKSDSPQCAQESDSVRAICLPEANLQLPDWTECELSGYGKHKSSSPFYSEQLKEGHVRLYPSSRCAPKFLFNKTVTNNMLCAGDTRSGEIYPNVHDACQGDSGGPLVCMNDNHMTLLGIISWGVGCGEKDVPGVYTKVTNYLGWIRDNMHLHHHHHHKDEL
  fibrin plate assay (fibrin degradation; lytic area on the fibrin plate): recombinant t-PA from T1 seeds and DSPAα1 from T3 homologous seeds can degrade fibrin
